Assay [1] addresses tumor-associated calcium signal transducer 2 (TROP2) (UniProt P09758). Briefly: cell-based or functional assay.
Assay [2] concerns the target human epidermal growth factor receptor 2 (HER2) (human) (UniProt P04626). As to the kind of experiment: cell-based or functional assay.

Sequence of tumor-associated calcium signal transducer 2 (TROP2) (P09758 27-323 limits assumed): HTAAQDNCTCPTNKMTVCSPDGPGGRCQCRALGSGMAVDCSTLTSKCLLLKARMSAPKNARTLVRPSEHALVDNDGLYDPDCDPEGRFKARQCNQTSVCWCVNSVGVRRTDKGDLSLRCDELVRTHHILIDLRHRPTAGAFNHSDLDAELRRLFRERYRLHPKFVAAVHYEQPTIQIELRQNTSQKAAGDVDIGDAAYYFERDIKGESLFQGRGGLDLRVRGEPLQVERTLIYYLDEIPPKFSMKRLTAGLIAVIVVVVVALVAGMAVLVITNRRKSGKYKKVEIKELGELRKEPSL

For “CXCL12-Sacituzumab (bispecific antibody)”, in assay [1], the Dmax (%), TROP2, MCF7 came out at 51%. Take “CXCL12-Trastuzumab (bispecific antibody)”: in assay [2], the IC50 of cell viability, modified MTT assay, MDA-MB-175VII cells, 5 days stood at 86.8 nM and the IC50 of cell viability, modified MTT assay, SK-BR-3 cells, 5 days was determined as 199 nM.

Source of the values: patent US20240189423A1.
